Data as given in patent US6805861B2, “Immunotherapy using cytotoxic T lymphocytes (CTL)” (Imperial College Innovations Limited, priority 1996, dated 2004).
Where two headings read alike, the source gives them in different places.

What was measured:
H-2K^b class I molecules = target: T1, H-2K^b class I molecules (Mus musculus, UniProt P01901); experiment: Binding of peptide to H-2K^b class I molecules
T1 sequence (P01901 22-369): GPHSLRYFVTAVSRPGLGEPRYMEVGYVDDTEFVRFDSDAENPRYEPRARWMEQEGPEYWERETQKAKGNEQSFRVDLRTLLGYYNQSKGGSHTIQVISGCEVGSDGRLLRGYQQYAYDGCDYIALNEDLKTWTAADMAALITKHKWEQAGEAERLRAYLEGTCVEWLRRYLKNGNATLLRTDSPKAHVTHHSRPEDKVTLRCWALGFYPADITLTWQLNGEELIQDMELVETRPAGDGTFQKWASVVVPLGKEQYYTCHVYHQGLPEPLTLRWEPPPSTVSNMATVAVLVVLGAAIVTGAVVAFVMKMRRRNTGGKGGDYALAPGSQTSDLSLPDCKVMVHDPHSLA
T1 sequence (P01887 21-119 partner): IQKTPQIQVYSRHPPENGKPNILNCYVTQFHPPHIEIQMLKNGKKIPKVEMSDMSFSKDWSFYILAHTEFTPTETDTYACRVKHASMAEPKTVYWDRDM
Method: Peptides: The mdm100 peptide corresponds to amino acid 100-107 (YAMIYRNL; SEQ ID No 1) of the murine mdm-2 protein. […] All peptides used in this study were synthesised by the central peptide synthesis laboratory of the Imperial Cancer Research Fund, London, using finoc chemistry. The quality of the peptides were assessed by HPLC analysis and the expected molecular weight was observed using MALDI mass-spectrometry. The peptides were dissolved in phosphate buffered saline (pH 7.4) to give a concentration of 2 mM and stored at −20° C.

[1] = CTL stimulation by mdm100 peptide in C57BL/6 mice; format: in vivo, mouse; conditions: self-restricted repertoire

## YAMIYRNL [mdm100 peptide]
H-2K^b class I molecules
  binding to H-2K^b class I molecules: bound efficiently
H-2K^b class I molecules; listed as mdm100
  binding to H-2K^b class I molecules: efficiently bound
[1]
  CTL stimulated by the peptide in C57BL/6 mice (H-2^b): only stimulated low avidity CTL
